Assays:
[1] = substrate: NC(=O)c1ncn([C@@H]2O[C@H](COP(=O)(O)O)[C@@H](O)[C@H]2O)c1NC=O; assay: purified protein; type: biochemical, Cryptococcus neoformans; conditions: IMP cyclohydrolase activity, 100 mM Tris-Cl pH 7.5, 37 °C
[2] = biological target: the molecule itself; assay: SEC-MALS

B1: Cryptococcus neoformans AICAR transformylase/IMP cyclohydrolase (ATIC) (enzyme, UniProt J9VJP1 1-605, looked up)
chain: MSSEAPIALLSVYDKTGLLPFAKSLKELGFRLLGSGGTAKMIREAGMEIEDVSNITKAPEMLGGRVKTLHPAVHGGILSRDIPSDLADLATNKISPITLVVCNLYPFVLQTAKPDCTLAGAIEEIDIGGVTLLRAAAKNHGRVSIISSPSDYETIVAELRAKGEVSAETRRGLAIKAFEDTKSYDEAISDYFRKVYATPGVEEEMKAGAGVGYQRLGLRYGANPHQKPAQAFVEQGEMPIKVLSGSPGYINLLDALNSWALVKELAAGLDLPAAASFKHVSPAGAAVGLPLDERAAKVFGVEDLKELSPLACAYARARGADRMSSFGDFIALSHTVDTPTAKIISREVSDGVIAPGYEPEALEILSKKKGGKYCVLQMDPTYVPPEIETRQVYGISLQQKRNDCKIDESLFKNVVTANKDLPKSAVTDLVVATLALKYTQSNSVCYALNGTVIGLGAGQQSRIHCTRLAGDKADNWWLRHHPRVLELPFKKGTKRADKANAIDLFVTGQAFEAEGGERAQWESLFETVPEPLTKEEREKHMKELTGVACASDAFFPFPDNVHRAKRSGATYLAAPSGSIMDKECIKAADESNLVFCHTDLRLFHH
Protein B1 has a Km [1] of 30 ± 1 µM, a Vmax [1] of 8.6 µmol/min/mg and a kcat [1] of 7.7 ± 0.1 s⁻¹. For the same protein, the “stoichiometry N” value [2] was 2.
